Test results reported in patent publication US20190218277A1 (Chugai, published 2019).
Substitutions are numbered along the chain they refer to.

T1: mouse FcγRIV (mouse, UniProt A0A0B4J1G0 21-203)
T1 construct: also called mFcγRIV; mouse FcγR4
T1 sequence: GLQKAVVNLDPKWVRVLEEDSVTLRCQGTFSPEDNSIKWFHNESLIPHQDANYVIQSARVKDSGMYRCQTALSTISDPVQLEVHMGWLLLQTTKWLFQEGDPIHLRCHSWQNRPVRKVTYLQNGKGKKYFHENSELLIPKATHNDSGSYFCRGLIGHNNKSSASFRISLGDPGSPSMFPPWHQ

T2: human FcγRIIIb (NA1) (human, UniProt O75015 17-200)
T2 construct: also called human FcγR3b allelic variant NA1
T2 chain: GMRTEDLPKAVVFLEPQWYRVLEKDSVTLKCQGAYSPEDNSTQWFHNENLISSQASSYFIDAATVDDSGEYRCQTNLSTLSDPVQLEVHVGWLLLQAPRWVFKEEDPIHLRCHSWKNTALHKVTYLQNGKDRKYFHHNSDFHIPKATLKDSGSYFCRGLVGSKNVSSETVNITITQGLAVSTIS

T3: human FcγRIIb (human, UniProt P31994 43-217)
T3 construct: also called human FcγR2b
T3 sequence: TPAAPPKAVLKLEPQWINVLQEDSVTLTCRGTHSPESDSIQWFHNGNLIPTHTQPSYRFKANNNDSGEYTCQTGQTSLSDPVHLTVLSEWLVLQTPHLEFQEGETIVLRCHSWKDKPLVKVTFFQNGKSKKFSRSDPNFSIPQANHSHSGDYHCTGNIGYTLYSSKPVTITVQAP

T4: mouse FcγRIII (mouse, UniProt P08508 31-215)
T4 construct: also called mFcγRIII; mouse FcγR3
T4 chain: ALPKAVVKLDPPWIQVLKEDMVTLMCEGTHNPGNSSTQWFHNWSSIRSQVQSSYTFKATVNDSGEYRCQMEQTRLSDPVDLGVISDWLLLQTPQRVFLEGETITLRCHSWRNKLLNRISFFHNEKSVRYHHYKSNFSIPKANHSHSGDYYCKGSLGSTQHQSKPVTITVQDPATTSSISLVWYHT

T5: mouse FcγRI (mouse, UniProt P26151 25-297)
T5 construct: also called mFcγRI; mouse FcγR1
T5 sequence: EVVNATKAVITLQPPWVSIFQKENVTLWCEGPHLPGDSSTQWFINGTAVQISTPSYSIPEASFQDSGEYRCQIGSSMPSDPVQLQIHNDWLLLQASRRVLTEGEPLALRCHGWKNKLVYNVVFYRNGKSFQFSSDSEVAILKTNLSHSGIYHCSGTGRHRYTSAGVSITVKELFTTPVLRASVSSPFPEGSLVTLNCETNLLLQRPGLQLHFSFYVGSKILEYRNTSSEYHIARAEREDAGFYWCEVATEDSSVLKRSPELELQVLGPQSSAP

B1: DG_3CH-SG182/3CL-SK1 (antibody, human IgG1, kappa, V domains shown)
VH: QVQLVQSGPDVEKPGASVKVSCKASGYTFTSNYIHWVRQAPGQGLEWMGVINPRGGSTASAQKFQGRITMTRDTSTSTVYMELSSLRSDDTAVYYCARGGRALFYDSYTTPRDGGSWWFDPWGQGSLVTVSS
VL: DIQLTQSPSSLSASVGDRVTFTCQASQDIRKYLNWYQQKPGKAPKLLIYDASNLKTGVPSRFSGSGSGTDFTFTISSLQPEDVATYYCQQFDDLPITFGQGTRLQIKR
B2: Anti-CD154 antibody (SLAPH0336a/SLAPL0336a) with Fc variant LALA+KAES (SG1095) (antibody, human IgG1, kappa, L234A L235A)
heavy: EVQLVESGGGSVKPGGSLKLSCAASGFTFSDHYMYWVRQTPEKRLEWVAIISGGGSYTSYPDSMKGRFTISRDNAKNILHLQMSSLKSEDTAMYYCTRESNGKPGFAYWGQGTLVTVSAASTKGPSVFPLAPSSKSTSGGTAALGCLVKDYFPEPVTVSWNSGALTSGVHTFPAVLQSSGLYSLSSVVTVPSSSLGTQTYICNVNHKPSNTKVDKRVEPKSCDKTHTCPPCPAPEAAGGPSVFLFPPKPKDTLMISRTPEVTCVVVDVSHEDPEVKFNWYVDGVEVHNAKTKPREEQYNSTYRVVSVLTVLHQDWLNGKEYKCKVSNAALPAPISKTISKAKGQPREPQVYTLPPSREEMTKNQVSLTCLVKGFYPSDIAVEWESNGQPENNYKTTPPVLDSDGSFFLYSKLTVDKSRWQQGNVFSCSVMHEALHNHYTQKSLSLSP
light: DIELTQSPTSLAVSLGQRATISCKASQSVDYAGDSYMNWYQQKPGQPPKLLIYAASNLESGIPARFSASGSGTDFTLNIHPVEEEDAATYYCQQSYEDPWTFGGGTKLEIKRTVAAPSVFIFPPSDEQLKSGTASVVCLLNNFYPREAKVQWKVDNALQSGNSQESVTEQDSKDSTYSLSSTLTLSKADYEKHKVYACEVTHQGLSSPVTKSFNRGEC
B3: EFT (antibody, human IgG1, kappa)
heavy chain: B2 heavy with A236L, A237L, S269E, H270F, S326T, A328K, S335E
light chain: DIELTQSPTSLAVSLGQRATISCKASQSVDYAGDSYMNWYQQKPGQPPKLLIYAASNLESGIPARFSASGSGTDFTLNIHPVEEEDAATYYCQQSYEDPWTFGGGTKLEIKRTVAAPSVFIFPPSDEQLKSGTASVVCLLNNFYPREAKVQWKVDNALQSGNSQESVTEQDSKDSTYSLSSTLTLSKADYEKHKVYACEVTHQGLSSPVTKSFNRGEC
notes: also called Anti-CD154 antibody (SLAPH0336a/SLAPL0336a) with Fc variant EFT (SG1087); SG1087
B4: DG_3CH953-SG182/3CL563-SK1 (antibody, human IgG1, kappa, V domains shown)
VH: B1 VH with T58R, A59R, D89E, R112F
VL: B1 VL with K31Q, T56F, D92S, D93A
B5: DG_3CH955-SG182/3CL-SK1 (antibody, V domains shown)
VH: B1 VH with T58R, A59R, D89E, G114L
VL: B1 VL
B6: DG_3CH-SG182/3CL499-SK1 (antibody, V domains shown)
VH: B1 VH
VL: B1 VL with T56F, D93A
B7: DG_3CH-SG182/3CL563-SK1 (antibody, V domains shown)
VH: B1 VH
VL: B1 VL with K31Q, T56F, D92S, D93A
B8: DG_3CH912-SG182/3CL-SK1 (antibody, human IgG1, kappa, V domains shown)
VH: B1 VH with T58R, D89E, R112F
VL: B1 VL
B9: DG_3CH953-SG182/3CL499-SK1 (antibody, V domains shown)
VH: B1 VH with T58R, A59R, D89E, R112F
VL: B1 VL with T56F, D93A
B10: DG_3CH954-SG182/3CL-SK1 (antibody, V domains shown)
VH: B1 VH with T58R, A59R, D89E, G114D
VL: B1 VL
B11: Anti-CD154 antibody (SLAPH0336a/SLAPL0336a) with Fc variant LALA+KMES (SG1098) (antibody, human IgG1, kappa, L234A L235A)
heavy: B2 heavy with A328M
light: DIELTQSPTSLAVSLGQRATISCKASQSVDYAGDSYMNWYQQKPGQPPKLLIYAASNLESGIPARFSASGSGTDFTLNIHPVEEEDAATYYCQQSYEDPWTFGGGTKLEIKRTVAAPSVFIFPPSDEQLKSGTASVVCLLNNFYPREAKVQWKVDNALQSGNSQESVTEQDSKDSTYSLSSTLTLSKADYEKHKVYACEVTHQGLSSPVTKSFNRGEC
B12: LALA + KDES (antibody, human IgG1, kappa, L234A L235A)
heavy chain: B2 heavy with A328D
light chain: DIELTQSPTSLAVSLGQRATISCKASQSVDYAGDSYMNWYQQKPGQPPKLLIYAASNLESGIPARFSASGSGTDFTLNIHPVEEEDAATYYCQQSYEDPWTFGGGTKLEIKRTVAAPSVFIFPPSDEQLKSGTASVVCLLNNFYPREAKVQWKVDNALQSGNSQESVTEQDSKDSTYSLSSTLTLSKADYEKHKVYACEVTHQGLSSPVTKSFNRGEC
notes: also called Anti-CD154 antibody (SLAPH0336a/SLAPL0336a) with Fc variant LALA+KDES (SG1096); SG1096
B13: Anti-CD154 antibody (SLAPH0336a/SLAPL0336a) with Fc variant LALA+KEES (SG1097) (antibody, human IgG1, kappa, L234A L235A)
heavy: B2 heavy with A328E
light: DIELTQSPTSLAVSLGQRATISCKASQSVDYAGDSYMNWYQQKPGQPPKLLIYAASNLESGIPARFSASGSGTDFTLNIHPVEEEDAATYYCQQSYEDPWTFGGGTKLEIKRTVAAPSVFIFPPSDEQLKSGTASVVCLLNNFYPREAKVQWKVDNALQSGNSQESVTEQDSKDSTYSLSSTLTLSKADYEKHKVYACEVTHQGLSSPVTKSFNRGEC

Each binder was assayed against T6, Recombinant soluble E protein (0.8E-His) from DENV-1 (DENV-1, UniProt P27909 281-675) (assay: not given).
T6 construct: also called DENV-1 E protein; DV1

| Binder | Kd |
| --- | --- |
| B1 | 22.5 nM |

What follows are binders tested against T7, human FcγRIa (human, UniProt P12314 16-292) (assay: SPR (Biacore T200, pH 7.4, 25 °C): His-tagged FcγR captured by anti-His antibody; antibody injected at 100 nM alone (Ab alone) or as 1:1 complex with trimeric CD154 (CD154 IC); binding level / capture level [A]).
T7 construct: also called human FcγR1a
T7 sequence (P12314 16-292 limits assumed): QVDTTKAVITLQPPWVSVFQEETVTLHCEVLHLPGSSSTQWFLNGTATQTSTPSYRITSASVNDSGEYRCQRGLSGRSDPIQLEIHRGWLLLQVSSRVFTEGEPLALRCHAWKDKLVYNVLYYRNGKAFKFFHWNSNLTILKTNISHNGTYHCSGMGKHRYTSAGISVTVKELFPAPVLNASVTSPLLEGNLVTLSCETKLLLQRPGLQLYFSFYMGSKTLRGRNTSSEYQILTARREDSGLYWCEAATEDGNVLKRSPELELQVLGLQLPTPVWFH

| Binder | binding result |
| --- | --- |
| B2 | binds |
| B3 | binds |

What follows are binders tested against T8, Recombinant soluble E protein (0.8E-His) from DENV-2 (DENV-2, UniProt P14340 281-675) (assay: not given).
T8 construct: also called DENV-2 E protein; DV2

| Binder | Kd |
| --- | --- |
| B4 | 0.922 nM |
| B5 | 0.794 nM |
| B6 | 4.73 nM |
| B7 | 4.43 nM |
| B8 | 0.811 nM |
| B9 | 0.905 nM |
| B10 | 0.122 nM |

The binders below were run against T9, Recombinant soluble E protein (0.8E-His) from DENV-4 (DENV-4, UniProt P09866 280-674) (assay: not given).
T9 construct: also called DENV-4 E protein; DV4

| Binder | Kd |
| --- | --- |
| B1 | 16.9 nM |
| B4 | 8.21 nM |
| B5 | 7.8 nM |
| B6 | 8.35 nM |
| B7 | 11.8 nM |
| B8 | 8.78 nM |
| B9 | 5.99 nM |
| B10 | 4.35 nM |

Each binder was assayed against T10, Recombinant soluble E protein (0.8E-His) from DENV-3 (DENV-3, UniProt P27915 281-673) (assay: not given).
T10 construct: also called DENV-3 E protein; DV3

| Binder | Kd |
| --- | --- |
| B1 | 6.07 nM |
| B5 | 0.205 nM |
| B6 | 4.03 nM |
| B7 | 3.52 nM |
| B9 | 0.211 nM |
| B10 | 0.124 nM |

Molecular target: T6, Recombinant soluble E protein …
Assay: not given
Remark: another data set of the same source

| Binder | Kd |
| --- | --- |
| B1 | 32.1 nM |
| B4 | 1.88 nM |
| B5 | 1.13 nM |
| B6 | 11.1 nM |
| B7 | 13.4 nM |
| B8 | 1.85 nM |
| B9 | 1.46 nM |
| B10 | 0.887 nM |

Each binder was assayed against T1, mouse FcγRIV (assay: SPR (Biacore T200, pH 7.4, 25 °C): His-tagged FcγR captured by anti-His antibody; antibody injected at 100 nM alone (Ab alone) or as 1:1 complex with trimeric CD154 (CD154 IC); binding level / capture level [D]).

| Binder | binding result |
| --- | --- |
| B3 | binds |

These binders were tested against T11, human FcγRIIIa (158V) (human, UniProt P08637 17-208) (assay: SPR (Biacore T200, pH 7.4, 25 °C): His-tagged FcγR captured by anti-His antibody; antibody injected at 100 nM alone (Ab alone) or as 1:1 complex with trimeric CD154 (CD154 IC); binding level / capture level [F]).
T11 construct: also called human FcγR3a allelic variant 158V

| Binder | binding result |
| --- | --- |
| B2 | binds |
| B3 | binds |

Molecular target: T2, human FcγRIIIb (NA1)
Assay: SPR (Biacore T200, pH 7.4, 25 °C): His-tagged FcγR captured by anti-His antibody; antibody injected at 100 nM alone (Ab alone) or as 1:1 complex with trimeric CD154 (CD154 IC); binding level / capture level [G]

| Binder | binding result |
| --- | --- |
| B3 | no binding (tested: 100 nM) |

The binders below were run against T3, human FcγRIIb (assay: SPR (Biacore T200, pH 7.4, 25 °C): His-tagged FcγR captured by anti-His antibody; antibody injected at 100 nM alone (Ab alone) or as 1:1 complex with trimeric CD154 (CD154 IC); binding level / capture level [D]).

| Binder | binding result |
| --- | --- |
| B3 | binds |

Each binder was assayed against mouse C1q (from 10% mouse plasma) (mouse, UniProt P98086 23-245; P14106 26-253; Q02105 30-246) (assay: ELISA: antibody coated on the plate at the concentration shown, 10% mouse plasma added, detected with biotinylated anti-mouse C1q and streptavidin-HRP, OD 405 nm).
Sequence of mouse C1q (from 10% mouse plasma) (P98086 23-245 limits assumed, chain 1 of 3): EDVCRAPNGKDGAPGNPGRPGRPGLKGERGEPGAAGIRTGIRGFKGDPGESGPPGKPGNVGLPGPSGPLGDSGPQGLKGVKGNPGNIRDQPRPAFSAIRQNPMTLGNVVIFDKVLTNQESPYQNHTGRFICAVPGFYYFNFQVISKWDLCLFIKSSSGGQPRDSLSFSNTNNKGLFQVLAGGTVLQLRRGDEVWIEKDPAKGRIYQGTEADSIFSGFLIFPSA
Sequence of mouse C1q (from 10% mouse plasma) (P14106 26-253 limits assumed, chain 2 of 3): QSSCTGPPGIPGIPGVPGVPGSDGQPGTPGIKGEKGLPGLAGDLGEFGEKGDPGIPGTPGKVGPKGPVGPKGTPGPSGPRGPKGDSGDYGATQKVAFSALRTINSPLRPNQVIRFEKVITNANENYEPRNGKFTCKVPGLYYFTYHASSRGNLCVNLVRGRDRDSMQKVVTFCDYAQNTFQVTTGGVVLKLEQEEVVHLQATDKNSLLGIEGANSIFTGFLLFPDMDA
Sequence of mouse C1q (from 10% mouse plasma) (Q02105 30-246 limits assumed, chain 3 of 3): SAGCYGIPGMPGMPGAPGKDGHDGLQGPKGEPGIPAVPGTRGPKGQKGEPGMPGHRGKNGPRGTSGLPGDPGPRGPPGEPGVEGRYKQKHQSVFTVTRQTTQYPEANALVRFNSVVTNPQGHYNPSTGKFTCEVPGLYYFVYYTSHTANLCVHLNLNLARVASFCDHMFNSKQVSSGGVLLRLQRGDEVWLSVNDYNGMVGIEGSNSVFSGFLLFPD

| Binder | binding result |
| --- | --- |
| B2 | binds |

These binders were tested against T10, Recombinant soluble E protein … (assay: SPR, Biacore T200).

| Binder | binding result |
| --- | --- |
| B4 | binds |
| B8 | binds |

What follows are binders tested against human C1q (Calbiochem) (human, UniProt P02745 23-245; P02746 28-253; P02747 29-245) (assay: ELISA: antibody coated on the plate at the concentration shown, human C1q added, detected with HRP anti-human C1q, OD 450 nm).
Sequence of human C1q (Calbiochem) (P02745 23-245 limits assumed, chain 1 of 3): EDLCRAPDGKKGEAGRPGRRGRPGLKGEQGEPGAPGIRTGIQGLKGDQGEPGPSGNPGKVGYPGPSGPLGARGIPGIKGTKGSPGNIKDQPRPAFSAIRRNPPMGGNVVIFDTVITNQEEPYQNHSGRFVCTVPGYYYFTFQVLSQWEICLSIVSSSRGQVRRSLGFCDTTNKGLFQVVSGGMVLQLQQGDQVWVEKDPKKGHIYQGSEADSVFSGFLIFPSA
Sequence of human C1q (Calbiochem) (P02746 28-253 limits assumed, chain 2 of 3): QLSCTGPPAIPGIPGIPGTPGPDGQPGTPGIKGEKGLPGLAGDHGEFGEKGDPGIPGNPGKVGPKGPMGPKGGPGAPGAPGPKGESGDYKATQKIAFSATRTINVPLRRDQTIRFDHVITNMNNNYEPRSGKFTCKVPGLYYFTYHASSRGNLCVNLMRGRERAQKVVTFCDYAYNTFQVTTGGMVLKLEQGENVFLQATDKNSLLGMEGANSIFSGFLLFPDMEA
Sequence of human C1q (Calbiochem) (P02747 29-245 limits assumed, chain 3 of 3): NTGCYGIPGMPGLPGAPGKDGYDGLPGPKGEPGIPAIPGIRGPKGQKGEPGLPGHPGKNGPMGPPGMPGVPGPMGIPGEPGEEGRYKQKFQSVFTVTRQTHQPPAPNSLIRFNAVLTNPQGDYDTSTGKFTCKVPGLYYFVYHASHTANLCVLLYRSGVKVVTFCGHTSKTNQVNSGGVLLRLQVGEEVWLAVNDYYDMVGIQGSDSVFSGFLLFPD

| Binder | binding result |
| --- | --- |
| B2 | binds |
| B11 | binds |
| B12 | binds |
| B13 | binds |

Molecular target: T4, mouse FcγRIII
Assay: SPR (Biacore T200, pH 7.4, 25 °C): His-tagged FcγR captured by anti-His antibody; antibody injected at 100 nM alone (Ab alone) or as 1:1 complex with trimeric CD154 (CD154 IC); binding level / capture level [C]

| Binder | binding result |
| --- | --- |
| B3 | binds |

The binders below were run against T5, mouse FcγRI (assay: SPR (Biacore T200, pH 7.4, 25 °C): His-tagged FcγR captured by anti-His antibody; antibody injected at 100 nM alone (Ab alone) or as 1:1 complex with trimeric CD154 (CD154 IC); binding level / capture level [A]).

| Binder | binding result |
| --- | --- |
| B3 | binds |
